In patent US20230031280A1, “GLP-2 FUSION POLYPEPTIDES AND USES FOR TREATING AND PREVENTING GASTROINTESTINAL CONDITIONS” (SHIRE-NPS PHARMACEUTICALS, INC., priority 2017, published 2023):
pKd: −log10 of the molar value.

Legend:
[1] = molecular target: T1, hFcRn (extracellular domain of the FcRN) (Homo sapiens, UniProt P55899); assay: FcRn binding by surface plasmon resonance (Biacore)
T1 construct: made in house
Source text: Binding to the Fc neonatal receptor (FcRN) allows for recycling of the molecules and leads to an extended in vivo serum half-life of the Fc fusion proteins. Recycling occurs as the molecules are passively taken into the cells and the pH of the endosomes is lower. That leads to binding of the Fc portion of the molecule to the FcRN. When the FcRN recycles back to the surface of the cell, the pH is then neutral and the protein is released back into the serum.
Binding to the extracellular domain of the FcRN was measured by surface plasmon resonance (SPR) using a Biacore system. Direct immobilization with FcRn was achieved via amine coupling of a CM5 chip with FcRn under the following conditions: • i) hFcRn (expressed and purified in house) is diluted in Acetate buffer pH 5.0 to 5 μg/mL. • ii) Immobilize 5 μg/mL of FcRn with target of 500 RU on CM5 chip in PBS pH 7.0 • iii) Final response 454 RU • iv) Running buffer: PBS-P+, pHed to 5.5
The kinetic binding study was done using the following protocol. Samples were diluted in PBS-P+ to 50, 25, 12.5, 6.25, 3.125, 1.56, 0.78, 0.39, 0 nM. The parameters were set as follows: • i) Association and Dissociation 300 s at Flow rate 30 μL/min • ii) Regeneration with 25 mM Tris, 150 mM NaCl pH 8.0 40 s at 60 μL/min
A measurement of the binding of the GLP-2 peptibodies to the Fc neonatal receptor (FcRN) was undertaken at pH 5.5 and pH 7.4.

[2] = NanoDSF melting temperature / thermal stability; type: physicochemical; conditions: for NanoDSF melting temperature 1: first transition; for NanoDSF melting temperature 2: second transition
Method: Each of the GLP-2 peptibodies was tested by determining melting temperature with nanodifferential scanning fluorimetry (NanoDSF). NanoDSF is a measurement of protein stability over a range of temperatures, with a temperature ramp employed. The stability of tryptophan is measured by fluorescence, as reflected in a ratio of fluorescence at 350 nm to fluorescence at 330 nm. From the assay, one or more melting temperatures are determined. Because a protein in a certain state is understood to have a melting temperature, the number of melting temperatures observed reflects the number of different states.
(§1) Stability analysis was then performed using SEC-MALS and NanoDSF. For SEC-MALS, a Sepax Zenix C-150 column was used. The mobile phase buffer was 1× PBS with a final concentration of 400 mM NaCl. The flow rate was 0.8 mL per minute. 20 micrograms of total protein was injected. For NanoDSF, 10 microliters of sample was used, without normalization of the samples.
as §1

[3] = SEC-MALS (Sepax Zenix C-150) peak distribution; type: physicochemical
Method: A SEC-MALS assay was performed to determine the primary state (main peak) and its molecular weight. […] The GLP-2 peptibody O (albumin fusion) eluted at a molecular weight indicative of a monomer.
as §1, §1

[4] = Rat pharmacokinetics, intravenous dosing; type: in vivo, Sprague-Dawley rats; conditions: single dose 1 mg/ml
Method: (§2) In the rat, four pharmacokinetic parameters were measured for Gattex® (a GLP-2 peptide having the A2G mutation): CL, Vc, Vt and Q. The same pharmacokinetic parameters were also measured for GLP-2 peptibodies A, B, E, J, K, L, M, O and P. The data is shown in Table 4. Male Sprague-Dawley rats (3 animals per group) were injected intravenously either via a jugular vein or tail vein catheter. A singles dose of test article was injected at a dose level of 1 mg/ml. The test articles were formulated in PBS pH 7.4 at a concentration of Blood samples were taken 0.083, 0.167, 0.33, 0.5, 1, 2, 6, 24, 48, 72, 120, 168, 240, and 336 hours post dose. Blood samples were collected into heparinized tubes and centrifuged for 5 minutes at 2000 xg within 10 minutes of collection. 100 μL of plasma were transferred to a 1.5 ml Eppendorf tube containing 2 μL of 50 mM PMSF. After mixing, the plasma samples were frozen at −80° C. until analysis.

[5] = Rat pharmacokinetics, subcutaneous dosing; type: in vivo, Sprague-Dawley rats; conditions: single dose 1 mg/ml
Method: as §2, with “5.” for “4.”, “subcutaneously into the intra-scapular region of the animal.” for “intravenously either via a jugular vein or tail vein catheter.”, “[…]” for “1.5”, “mixing” for “mixing,”, “analysis. Meso Scale Discovery (MSD) ELISA was undertaken to assay for the concentration of the GLP-2 peptibodies.” for “analysis.”
A sandwich immunoassay was developed using either an anti-Human IgG1 Fc antibody or an anti-human albumin antibody for capture of the peptibody and a sulfotag labeled anti GLP-2 antibody for detection.

[6] = Table 7 (Example 6), 0.5 mg/mL sample
[7] = Table 7 (Example 6), 1.5 mg/mL sample
[8] = Table 7 (Example 6), 5 mg/mL sample
[9] = Table 7 (Example 6), 7.5 mg/mL sample

T1 sequence (P55899 24-297 limits assumed): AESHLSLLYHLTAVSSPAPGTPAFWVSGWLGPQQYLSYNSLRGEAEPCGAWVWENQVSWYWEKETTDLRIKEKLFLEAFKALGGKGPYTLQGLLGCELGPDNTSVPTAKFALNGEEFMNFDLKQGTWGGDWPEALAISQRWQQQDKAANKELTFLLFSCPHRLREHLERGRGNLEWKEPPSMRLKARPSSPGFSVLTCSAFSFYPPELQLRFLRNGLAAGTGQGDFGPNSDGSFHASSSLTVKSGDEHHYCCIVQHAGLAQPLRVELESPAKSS
T1 sequence (P61769 21-119 partner): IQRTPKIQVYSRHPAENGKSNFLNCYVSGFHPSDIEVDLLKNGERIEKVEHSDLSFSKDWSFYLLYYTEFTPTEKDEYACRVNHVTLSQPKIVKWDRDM

GLP-2 peptibody O: fusion protein between GLP-2, a linker, and amino acids 25-609 of human serum albumin; SEQ ID NO: 28
FcRN KD at pH 5.5 ([1]; pH 5.5): substantially higher KD
pKd ([1]; pH 5.5): 5.86
FcRN KD at pH 7.4 [1]: No binding in range tested.
NanoDSF melting temperature 1 [2]: 1 = 57.6 °C
SEC-MALS Zenix C-150 main peak [3]: 89.5% main peak, 76,500 g/mol
CL [4]: 5.42 mL/h/kg
Q [4]: 57.5 mL/h/kg
Vc [4]: 43.2 mL/kg
Vt [4]: 0.054 L/kg
CL [5]: 742 mL/day/kg
Vc [5]: 565 mL/kg
ka [5]: O (1.26 ka/day,

GLP-2 peptibody M: GLP-2[A2G]-GGGGSGGGGS linker-IgG1 Fc (LALA); SEQ ID NO: 25
pKd ([1]; pH 5.5): 8.74
FcRN KD at pH 7.4 [1]: No binding in range tested.
NanoDSF melting temperature 1 [2]: 1 = 67.3 °C
NanoDSF melting temperature 2 [2]: 2 = 79.9 °C
SEC-MALS Zenix C-150 main peak [3]: 81.4% main peak, 148,500 g/mol
CL [4]: 1.6 mL/h/kg
Q [4]: 7.62 mL/h/kg
Vc [4]: 12 mL/kg
Vt [4]: 0.0294 L/kg
CL [5]: 60.2 mL/day/kg
Vc [5]: 91.5 mL/kg
ka [5]: M (0.78 ka/day,

CC[C@H](C)[C@H](NC(=O)[C@H](Cc1ccccc1)NC(=O)[C@H](CC(=O)O)NC(=O)[C@H](CCCNC(=N)N)NC(=O)[C@H](C)NC(=O)[C@H](C)NC(=O)[C@H](CC(C)C)NC(=O)[C@H](CC(N)=O)NC(=O)[C@H](CC(=O)O)NC(=O)[C@H](CC(C)C)NC(=O)[C@@H](NC(=O)[C@@H](NC(=O)[C@H](CC(N)=O)NC(=O)[C@H](CCSC)NC(=O)[C@H](CCC(=O)O)NC(=O)[C@H](CC(=O)O)NC(=O)[C@H](CO)NC(=O)[C@H](Cc1ccccc1)NC(=O)[C@H](CO)NC(=O)CNC(=O)[C@H](CC(=O)O)NC(=O)CNC(=O)[C@@H](N)Cc1c[nH]cn1)[C@@H](C)O)[C@@H](C)CC)C(=O)N[C@@H](CC(N)=O)C(=O)N[C@@H](Cc1c[nH]c2ccccc12)C(=O)N[C@@H](CC(C)C)C(=O)N[C@H](C(=O)N[C@@H](CCC(N)=O)C(=O)N[C@H](C(=O)N[C@@H](CCCCN)C(=O)N[C@H](C(=O)N[C@H](C(=O)N[C@@H](CC(=O)O)C(=O)O)[C@@H](C)O)[C@@H](C)CC)[C@@H](C)O)[C@@H](C)CC [Gattex]
clearance ([4]; male, Sprague-Dawley, plasma): 1390 mL/h/kg
Vc [4]: 2,235 mL/kg
CL [5]: 51,649 mL/day/kg
Vc [5]: 1,794 mL/kg

GLP-2 peptibody A: GLP-2[A2G] fused without linker to IgG1 Fc (LALA); SEQ ID NO: 13
pKd ([1]; pH 5.5): 8.86
FcRN KD at pH 7.4 [1]: No binding in range tested.
NanoDSF melting temperature 1 [2]: 1 = 67.0 °C
NanoDSF melting temperature 2 [2]: 2 = 80 °C
CL [4]: 2.37 mL/h/kg
Q [4]: 2.42 mL/h/kg
Vc [4]: 43 mL/kg
Vt [4]: 0.079 L/kg
CL [5]: 70.7 mL/day/kg
Q [5]: 3.25 mL/h/kg
Vc [5]: 109 mL/kg
Vt [5]: 0.081 L/kg
ka [5]: A (0.45 ka/day,

GLP-2 peptibody L: GLP-2[A2G]-GGGGGGG linker-IgG1 Fc (LALA); SEQ ID NO: 22
pKd ([1]; pH 5.5): 8.76
FcRN KD at pH 7.4 [1]: No binding in range tested.
NanoDSF melting temperature 1 [2]: 1 = 67.5 °C
NanoDSF melting temperature 2 [2]: 2 = 80 °C
SEC-MALS Zenix C-150 main peak [3]: 87.4% main peak, 148,000 g/mol
CL [4]: 2.8 mL/h/kg
Q [4]: 0.792 mL/h/kg
Vc [4]: 37.8 mL/kg
Vt [4]: 0.538 L/kg
CL [5]: 80.6 mL/day/kg
Vc [5]: 127 mL/kg
ka [5]: L (0.63 ka/day,

GLP-2 peptibody P: fusion of GLP-2, a linker that is also a GLP-2 sequence, and human serum albumin 25-609; SEQ ID NO: 30
CL [4]: 7.08 mL/h/kg
Q [4]: 29.5 mL/h/kg
Vc [4]: 38.4 mL/kg
Vt [4]: 0.0439 L/kg

GLP-2 peptibody B264: GLP-2[A2G]-GGGGG linker-IgG1 Fc (LALA) without C-terminal lysine; SEQ ID NO: 1
Thermal Stability (NanoDSF) 1 ([2]; Table 6, 0.5 mg/mL sample): 1 = 67.1 °C
Thermal Stability (NanoDSF) 2 ([2]; Table 6, 0.5 mg/mL sample): 2 = 75.2 °C
Thermal Stability (NanoDSF) 1 ([2]; Table 6, 1.5 mg/mL sample): 1 = 67.0 °C
Thermal Stability (NanoDSF) 2 ([2]; Table 6, 1.5 mg/mL sample): 2 = 74.8 °C
Thermal Stability (NanoDSF) 1 ([2]; Table 6, 5 mg/mL sample): 1 = 67.2 °C
Thermal Stability (NanoDSF) 2 ([2]; Table 6, 5 mg/mL sample): 2 = 75.0 °C
Thermal Stability (NanoDSF) 1 ([2]; Table 6, 11 mg/mL sample): 1 = 67.5 °C
Thermal Stability (NanoDSF) 2 ([2]; Table 6, 11 mg/mL sample): 2 = 74.7 °C
Thermal Stability (NanoDSF) 1 [2, 6]: 1 = 67.6 °C
Thermal Stability (NanoDSF) 2 [2, 6]: 2 = 80.2 °C
Thermal Stability (NanoDSF) 1 [2, 7]: 1 = 67.6 °C
Thermal Stability (NanoDSF) 2 [2, 7]: 2 = 80.2 °C
Thermal Stability (NanoDSF) 1 [2, 8]: 1 = 67.7 °C
Thermal Stability (NanoDSF) 2 [2, 8]: 2 = 80.7 °C
Thermal Stability (NanoDSF) 1 [2, 9]: 1 = 67.8 °C
Thermal Stability (NanoDSF) 2 [2, 9]: 2 = 80.4 °C
SEC LMW ([3]; Table 6, 0.5 mg/mL sample): 17.2% LMW
SEC Main Peak ([3]; Table 6, 0.5 mg/mL sample): 82.8% Main Peak
SEC HMW ([3]; Table 6, 1.5 mg/mL sample): 2.1% HMW
SEC LMW ([3]; Table 6, 1.5 mg/mL sample): 20.8% LMW
SEC Main Peak ([3]; Table 6, 1.5 mg/mL sample): 77.2% Main Peak
SEC HMW ([3]; Table 6, 5 mg/mL sample): 2% HMW
SEC LMW ([3]; Table 6, 5 mg/mL sample): 20.1% LMW
SEC Main Peak ([3]; Table 6, 5 mg/mL sample): 77.9% Main Peak
SEC HMW ([3]; Table 6, 11 mg/mL sample): 2.1% HMW
SEC LMW ([3]; Table 6, 11 mg/mL sample): 17.4% LMW
SEC Main Peak ([3]; Table 6, 11 mg/mL sample): 80.5% Main Peak
SEC HMW [3, 6]: 2.9% HMW
SEC LMW [3, 6]: 19.7% LMW
SEC Main Peak [3, 6]: 77.4% Main Peak
SEC LMW [3, 7]: 21.4% LMW
SEC Main Peak [3, 7]: 78.6% Main Peak
SEC LMW [3, 8]: 20.8% LMW
SEC Main Peak [3, 8]: 79.2% Main Peak
SEC LMW [3, 9]: 19.9% LMW
SEC Main Peak [3, 9]: 80% Main Peak
